The text below walks through data of paper PMC9636275 (Nature Communications, 2022).

The test system of data set [1] is YiaC. Kind of data set: YiaC lactylation/acetylation of synthetic peptide, LC-MS. Format: biochemical, E. coli. The settings on record: 50 μM TICHDKAFVR, 5 μM YiaC, 2 h.
Data set [2] concerns YiaC. Kind of data set: Kinetic parameters of YiaC, MALDI-TOF MS. Format: biochemical, E. coli. The settings on record: for kcat: peptide from PncB, MALDI-TOF MS. On the procedure:
(§1) This method was described previously. […] Meanwhile, YiaC was incubated with unmodified peptide ([…], from PncB) in the YiaC reaction buffer. The concentrations of the peptides were 5, 10, 16, 32, 60, and 285 uM, and reaction time were 1, 5, 15, and 30 min. […] 0.1 μl samples mixed with 2,5-dihydroxybenzoic acid (DHB) were analyzed by MS. An acceleration voltage of 20 kV was used. MS data were analyzed using FlexAnalysis software for spectral processing and peak detection. The enzyme kinetics were analyzed by Prism GraphPad 8.0 software.

The next data set has as its system whole-cell lysates. As to the kind of experiment: Immunoblotting of lysine acylation in whole-cell lysates of overexpressing or deficient strains. In kind it is cell-based, E. coli. The settings on record: immunoblot; for Kla level: overexpression in E. coli BL21 (λDE3) vs empty pET28a, LB 37 °C. As to the method: All the anti-acyllysine antibodies were purchased from PTM Biolabs Inc. All the synthetic peptides were generated by SciLight Biotechnology, LLC. Antibodies (all diluted 1:1000) and other reagents are listed in Supplementary Data 7.
This method was performed as described previously. In detail, plasmids were constructed to express proteins in E. coli. We used pEASY®-Basic Seamless Cloning and Assembly Kit (TRANS) to construct the plasmids of pET28a-cisY, pET28a-pncB, pET28a-gpmA, pET28a-mdh, pET28a-pykF, and pBR322-pykF-His tag. For mutation, we used the Fast Mutagenesis System (TRANS) to construct the vectors containing point mutated genes. All primers used for PCR are listed in Supplementary Data 7. The constructed vectors of pET28a were transformed into E. coli BL21 (λDE3) for overexpressing strains. The constructed vectors of pBR322 were transformed into E. coli MG1655 and cultured in LB medium containing ampicillin (Amp, 50 μg ml^–1), at 37 °C in shaken flasks at 220 rpm. overnight.
Next, cells were induced with 0.05 mM IPTG at 16 °C overnight followed by harvesting of whole-cell lysates for immunoblotting or protein purification. The proteins were harvested from cultured cells by lysis buffer (20 mM Tris-HCl, pH 8.0, 10 mM MgCl2, 1 mg ml^–1 lysozyme, 50 U ml^–1 nuclease). Then the proteins were mixed with HisPur Ni-NTA Resin and washed by wash buffer (20 mM Na3PO4, 300 mM NaCl, 25 mM imidazole, pH 7.4), the overexpressed proteins were eluted with elution buffer (20 mM Na3PO4, 300 mM NaCl, 250 mM imidazole, PH 7.4). The elution was collected and concentrated using an Amicon Ultra-0.5 Centrifugal Filter Device in storage buffer (100 mM HEPES, 10 mM MgCl2, 7.7 mM KCl, pH 7.0).
Background: In western blotting, separated proteins are transferred to a membrane and probed.

The next data set deals with GltA, PncB. Kind of data set: Lactylation reaction of recombinant proteins by YiaC, immunoblotting. In kind it is biochemical, E. coli. Particulars: 15 μM YiaC, 20 μM substrate, lactyl-CoA 1 mM, 25 °C, 10 h.
Data set [3] concerns the target T1, CobB (Escherichia coli, UniProt P75960).
T1 sequence (P75960 1-279): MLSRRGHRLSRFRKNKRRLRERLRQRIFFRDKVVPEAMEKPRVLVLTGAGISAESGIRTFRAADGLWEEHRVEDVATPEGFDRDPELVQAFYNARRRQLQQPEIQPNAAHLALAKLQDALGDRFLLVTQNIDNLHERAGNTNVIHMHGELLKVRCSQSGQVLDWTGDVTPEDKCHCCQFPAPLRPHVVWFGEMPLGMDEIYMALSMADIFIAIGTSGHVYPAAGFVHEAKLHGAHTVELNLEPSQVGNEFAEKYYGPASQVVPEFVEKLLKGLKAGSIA
Particulars: for kcat: 37 °C, MALDI-TOF MS, mean ± SEM; for kcat / kcat/Km: n = 3. On the procedure: as §1

A further data set relates to PykF, GpmA, Mdh. The settings on record: 15 μM CobB, 20 μM substrate, 25 °C, 10 h. As to the method:
The purified recombinant YiaC (15 μM) and candidate substrate proteins (GltA, PncB, 20 μM) were incubated in YiaC reaction buffer at 25 °C for 10 h. […] The reaction products were analyzed by Western blotting with anti-lactylation.

In data set [4] the target is T1, CobB. Particulars: 50 μM peptide, 1 μM CobB, pH 8.5, 37 °C, 2 h; with 1 mM NAD^+ unless stated.
Another data set deals with PykF. The settings on record: in vitro; result in words.
[5] abbreviates: overexpression in E. coli BL21 (λDE3) vs pET28a.
Setting [6] is: Deacetylation, Michaelis-Menten best fit, Supplementary Data 2.
Setting [7] is: deacetylation, AETAEK(ac)YGDEQVK.
The mark [8] stands for this setting: delactylation, AETAEK(la)YGDEQVK.

“Also recorded” adds a separate entry of the source. Where two headings read alike, the source gives them in different places.

B1: YiaC: GNAT family protein; lysine lactylase (protein, UniProt P37664 1-146, looked up)
Peptidyl-lysine …: MIREAQRSELPAILELWLESTTWGHPFIKANYWRDCIPLVRDAYLANAQNWVWEEDGKLLGFVSIMEGRFLAAMFVAPKAVRRGIGKALMQYVQQRHPHLMLEVYQKNQPAINFYQAQGFHIVDCAWQDETQLPTWIMSWPVVQTL
For B1, the “lactylation of peptide by YiaC” value in the data set with YiaC [1] (0.1 mM lactyl-CoA, pH 7, 37 °C) was “can catalyze lactylation in vitro”. For the same molecule, in the data set with YiaC [1] (37 °C), the “lactylation compared with acetylation by YiaC” value was “likely more efficient for lactylation”. For the same molecule, the Vmax in the data set on YiaC [2] (Acetylation, Michaelis-Menten best fit, Supplementary Data 2) is 0.005773; in the data set on YiaC [2] (Lactylation, Michaelis-Menten best fit, Supplementary Data 2), 0.01667. Moreover, the Km in the data set on YiaC [2] (Acetylation, Michaelis-Menten best fit, Supplementary Data 2, read-out: Km) worked out at 28.7 µM; in the data set on YiaC [2] (Lactylation, Michaelis-Menten best fit, Supplementary Data 2, read-out: Km) it was 26.6 µM; in the data set with YiaC [2] (acetylation, peptide from PncB 5-285 μM, mean ± SEM, n = 3, read-out: Km for peptide) it was 28.7 ± 1.2 µM; with YiaC [2] (lactylation, peptide from PncB 5-285 μM, mean ± SEM, n = 3, read-out: Km for peptide) it was 26.6 ± 1.1 µM. The specificity constant (kcat/Km) in the data set on YiaC [2] (acetylation, n = 3) is 8000 M⁻¹ s⁻¹; in the data set with YiaC [2] (lactylation, n = 3), 36000 M⁻¹ s⁻¹. Also, the kcat in the data set with YiaC [2] (acetylation, mean ± SEM, n = 3) was determined as 0.23 ± 0.04 s⁻¹; with YiaC [2] (lactylation, mean ± SEM, n = 3), 0.97 ± 0.03 s⁻¹. For the same molecule, the Kla level result in the data set on whole-cell lysates was “extensive and obvious increase in Kla levels”. Besides, in the data set with whole-cell lysates (setting [5]), the Kac level result is “could upregulate Kac”. The succinylation level entry in the data set on whole-cell lysates (setting [5]) is listed as “did not cause a change in succinylation”. Further, the “lactylation of candidate proteins” value in the data set on GltA, PncB was “can effectively lactylate citrate synthase (GltA) and nicotinate phosphoribosyltransferase (PncB)”.

B2: CobB: NAD-dependent deacylase; lysine delactylase (protein)
chain: T1 sequence (P75960 1-279)
modifications: left off: His tag (from the vector pET28a and the Ni-NTA purification), end not stated, state not stated
notes: NAD-dependent deacylase; lysine delactylase
Consider B2, for which, in the data set with CobB [3] (setting [6]), the Km was determined as 25.4 µM and the Vmax was determined as 0.01822. Moreover, the Vmax in the data set with CobB [3] (Delactylation, Michaelis-Menten best fit, Supplementary Data 2) was 0.02447. Further, in the data set with CobB [3] (setting [7]), the kcat is 0.97 ± 0.02 s⁻¹ and the kcat/Km was 52000 M⁻¹ s⁻¹. In the data set with CobB [3] (setting [8]), the kcat was determined as 0.99 ± 0.04 s⁻¹ and the catalytic efficiency (kcat/Km) turned out to be 39000 M⁻¹ s⁻¹. In the data set on whole-cell lysates, the Kla level entry is “significant decrease in Kla levels”. Moreover, the “delactylation of candidate proteins” value in the data set with PykF, GpmA, Mdh is “can clearly delactylate pyruvate kinase I (PykF), 2,3-bisphosphoglycerate-dependent phosphoglycerate mutase (GpmA) and malate dehydrogenase (Mdh) in vitro”. Further, the “delactylation of peptide by CobB” value with CobB [4] is recorded as “efficiently catalyzed the hydrolysis of the lactyl peptide in the presence of NAD^+; also recorded: the delactylated peptide was not detected in the reaction without NAD^+”. Moreover, the “PykF activity after CobB erasing K382la” value in the data set on PykF was “enhanced PykF activity in vitro”.

The Km is the substrate concentration at which the rate is half of its maximum. A word on the kcat/Km: it is the turnover number divided by the Michaelis constant. Usually kcat stands for the number of substrate molecules converted per active site and unit of time at saturation.
